Test results: patent publication US20100081624A1, “SELECTIVE PEPTIDES THAT INHIBIT THE BIOLOGICAL ACTIVITY OF CALCINEURIN” (Consejo Superior de Investigaciones Cientficas, priority 2005, published 2010)
Values belong to the substance of their own block, whether it stands above or below them. No end group written: not given here.

Assays:
human CN = molecular target: T1, human CN (Homo sapiens, UniProt P63098+Q08209); test: Phosphatase activity assay of CN on pNPP; format: biochemical; details: pNPP substrate; 0.01 mM
T1 construct: made in house; host or cells: bacteria
T1 sequence (P63098 whole entry, other chains not shown): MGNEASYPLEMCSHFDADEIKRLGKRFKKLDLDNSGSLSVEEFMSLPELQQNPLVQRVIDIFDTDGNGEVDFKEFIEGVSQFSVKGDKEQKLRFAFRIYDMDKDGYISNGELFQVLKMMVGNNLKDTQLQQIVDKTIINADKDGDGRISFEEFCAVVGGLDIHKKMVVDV
Experimental: Phosphatase Activity Assay of CN on pNPP (Paranitrophenylphosphate).
The quantity of the product of the enzymatic reaction at basic pH (paranitrophenolate=PNP) was measured by absorbance at 405 nm, converting this numerical value to a concentration by means of interpolation from a straight-line PNP pattern.

[1] = test system: NFATc2 dephosphorylation in HeLa cells; test: NFATc2 dephosphorylation in transfected HeLa cells (Western blot); format: cell-based; details: HeLa co-transfected with HA-NFATc2; PMA + calcium ionophore 1 hour, FIG. 8A
Experimental: The HeLa cells were cultivated in Dulbecco medium modified by Eagle (DMEM) (Gibco) completed with 10% bovine foetal serum (FBS) (Sigma). The day prior to transfection, the cells were seeded in 6-well plates in order to reach an 80% confluence at the moment of transfection. The cells were transfected with 18 ng of pEF-BOS HA-NFATc2 plus 1.1 μg of the GFP-peptide plasmids with 4 μl of Plus reagent plus 6 μl of Lipofectamine reagent (Invitrogen) for 3 hours in 1 ml of OPTIMEM medium (Gibco). By means of flow cytometry, the transfection efficiency and the percentage of cells which expressed GFP were quantified. Similar transfection efficiencies were obtained for the different constructs and in independent experiments.
Twenty-four hours after the transfection, the HeLa culture medium was replaced by DMEM+1% FBS. After a further two hours, the cells were stimulated during 1 hour using 20 ng/ml of PMA (phorbol 12 myristrate 13 acetate) (Sigma) plus 1 μM of calcium ionophore A23187 (Sigma) and 3 mM of CaCl2. […] After three washes with PBS-T and one additional wash with H2O, the antibody bound to the membranes was detected by means of the ECL system (Amersham Biosciences).

[2] = test system: nuclear translocation of NFATc2 in HeLa cells; test: Subcellular localisation of NFATc2 in transfected HeLa cells (immunofluorescence); format: cell-based; details: HeLa co-transfected with HA-NFATc2; calcium ionophore 30 min, FIG. 8B
Experimental: The HeLa cells were transfected as described in the previous section using 1.2 μg of the GFP-peptide expression plasmids with 40 ng of pEF-BOS HA-NFATc2. Two hours before the stimulation, the culture medium was replaced with DMEM+1% FBS. After stimulating during 30 min. with calcium ionophore A23187 (1 μm) and CaCl2 (3 mM), the cells were fixed at ambient temperature during 10 min. with a 10% solution of formaldehyde in PBS containing 4% saccharose. Subsequently, they were washed three times with PBS and were permeabilised at ambient temperature during 10 min. with a solution of PBS with 0.25% of Triton X-100. The cells were subsequently incubated during 20 min. with a blocking buffer (10% BSA in PBS) and subsequently with a 1:500 solution of the 12CA5 antibody (anti-HA) during one hour. The subcellular localisation of the NFATS was detected using a fluorescence microscope (Axiovert-200, Zeiss) using a mouse anti-IgG conjugated with the Alexa 594 fluorochrome (Molecular Probes) as a secondary antibody. The percentage of cells with nuclear or cytosolic distribution of NFAT was calculated using not less than 130 positive cells per transfection.

CN (Calcineurin) = molecular target: T2, CN (Calcineurin) (UniProt P48452+P63098); test: Pull-down of CN by GST-peptide fusion proteins (FIG. 3); format: binding; details: Western blot
T2 construct: purchased Sigma
Experimental: (§1) The GST fusion proteins were expressed in the protease-deficient strain of E. coli BL2(DE3). They were purified using the glutathione (GSH)-Sepharose B beads reagent (Amersham Biosciences). The binding of CN to these GST fusion proteins was used to carry out pull-down tests, which were performed as explained below. A variable amount of the beads which contained the GST fusion proteins fused to the regulatory NFAT domains (1-2 μg) or to the peptides (10-30 μg). These were washed twice with the binding buffer (20 mM Tris pH 8, 100 mM NaCl, 1.5 mM CaCl2, 6 mM MgCl2, 1 mM PMSF, 1 μm DTT, 1 μg/ml of aprotinine, 1 μg/ml of pepstatin, 100 μM of benzamidine and 0.2% of Triton X-100) and were subsequently incubated during 30 min. in a rotary shaker at 4° C. with a solution of 20 nM of Calcineurin (Sigma) plus 600 nM of Calmodulin (Sigma) in a binding buffer with or without the corresponding peptide. Subsequently, the samples were centrifuged briefly at 4° C. Laemmli buffer was added to the supernatants (unbound fraction), which were set aside for later analysis. […] The Calcineurin was detected by Western blot using an anti-CnA monoclonal mouse antibody (clone G182-1847, PharMingen). Where indicated, the amount of CN bound to the GST fusion proteins was quantified by densitometry using the Quantity One program (BIO-RAD).

[3] = molecular target: T3, CN-NFATc1 interaction (GST-NFATc1) (Homo sapiens, UniProt P63098+Q08209); test: In vitro competition of CN binding to GST-NFATc1 by synthetic peptides
T3 construct: purchased Sigma
Experimental: as §1

[4] = molecular target: T4, CN-NFATc2 interaction (GST-NFATc2) (Homo sapiens, UniProt P63098+Q08209); test: In vitro competition of CN binding to GST-NFATc2 by synthetic peptides
T4 construct: purchased Sigma
Experimental: The GST fusion proteins were expressed in the protease-deficient strain of E. coli BL2(DE3). They were purified using the glutathione (GSH)-Sepharose B beads reagent (Amersham Biosciences). The binding of CN to these GST fusion proteins was used to carry out pull-down tests, which were performed as explained below. A variable amount of the beads which contained the GST fusion proteins fused to the regulatory NFAT domains (1-2 μg) or to the peptides (10-30 μg). These were washed twice with the binding buffer (20 mM Tris pH 8, 100 mM NaCl, 1.5 mM CaCl2, 6 mM MgCl2, 1 mM PMSF, 1 μm DTT, 1 μg/ml of aprotinine, 1 μg/ml of pepstatin, 100 μM of benzamidine and 0.2% of Triton X-100) and were subsequently incubated during 30 min. in a rotary shaker at 4° C. with a solution of 20 nM of Calcineurin (Sigma) plus 600 nM of Calmodulin (Sigma) in a binding buffer with or without the corresponding peptide. Subsequently, the samples were centrifuged briefly at 4° C. Laemmli buffer was added to the supernatants (unbound fraction), which were set aside for later analysis. The beads were washed five times with cold, recently prepared binding buffer and Laemmli buffer was added; the samples were boiled to separate the bound proteins (bound fraction). The bound and unbound fractions were loaded onto 10% SDS-polyacrylamide gels and were separated by electrophoresis under reducing conditions. The Calcineurin was detected by Western blot using an anti-CnA monoclonal mouse antibody (clone G182-1847, PharMingen). Where indicated, the amount of CN bound to the GST fusion proteins was quantified by densitometry using the Quantity One program (BIO-RAD).

[5] = molecular target: T5, GST-LxVPc1-CN interaction (Homo sapiens, UniProt P63098+Q08209); test: Cross-competition of GST-LxVPc1-CN interaction (FIG. 7); format: binding; details: free competitor peptide, VIVIT 12 μM
T5 construct: purchased Sigma
Experimental: as §1

[6] = molecular target: T6, CN (Calcineurin) phosphatase activity on RII phosphopeptide (Homo sapiens, UniProt P63098+Q08209); test: Phosphatase activity assay of CN on RII substrate; format: biochemical; details: in vitro, FIG. 9
T6 construct: purchased Biomol
Experimental: The effect of the peptides mentioned (Example 7, FIG. 9) on the enzymatic activity of CN on the RII peptide was analysed using the “Biomol Green Calcineurin” assay kit by Biomol in accordance with the manufacturer's instructions. The combination of CsA (Sandoz) plus cyclophilin (CyP) (Sigma) was used to inhibit Calcineurin activity in vitro.

[7] = summary of LxVP and PxIxIT peptides

Substance: GFP-LxVPc1: GFP fusion protein with the LxVP peptide of NFATc1, expressed in HeLa cells
effect on induced NFATc2 dephosphorylation [1]: blocked induced NFATc2 dephosphorylation | cells with cytosolic NFATc2 staining [2]: 77%

Substance: GFP-LxVPc2: GFP fusion protein with the LxVP peptide of NFATc2 (SILLVPPTWPKPLVP; also: GFP fusion protein)
effect on induced NFATc2 dephosphorylation [1]: had no effect

Substance: GST-LxVPc2: GST protein fused with the LxVP motif of NFATc2 (SILLVPPTWPKPLVP; also: fused to GST protein)
amount of CN bound to GST-peptide fusion protein (CN (Calcineurin)): incapable of binding CN

Substance: LxVPc2: NFATc2-specific LxVP peptide (SILLVPPTWPKPLVP)
competition of GST-NFATc1 interaction with CN ([3]; 32 μM peptide, FIG. 6A): not capable of altering the NFAT-CN binding | competition of in vitro interaction of CN with NFATc1, overall [3, 7]: did not efficiently compete | competition of CN binding to GST-NFATc2 ([4]; 100 μM peptide, FIG. 4B): incapable of affecting the binding | competition of CN binding to GST-NFATc2 ([4]; competitor peptides at 32 μM or 200 μM, FIG. 4A): incapable of competing the binding of NFATc2 to CN | competition of CN binding to GST-NFATc2 ([4]; concentrations as high as 300 μM, FIG. 4B): partial inhibition | competition of in vitro interaction of CN with NFATc2, overall [4, 7]: did not efficiently compete

Substance: PxIxITc1: PxIxIT peptide corresponding to NFATc1 (ALESPRIEITSCLGL)
competition of CN binding to GST-NFATc2 ([4]; 100 μM peptide, FIG. 4B): efficiently blocked the interaction of CN with NFATc2

Further lines, with some results ahead:

% CN activity (human CN): 103.3 ± 7.1%
Substance: CypA: cyclophilin A, immunophilin, used separately as negative control

competition of binding of CN to GST-LxVPc1 [5]: competed the binding of CN to GST-LxVPc1 | competition of GST-NFATc2 binding to CN ([4]; 50 μM peptide, dose-dependent competition, FIG. 5): only a partial inhibiting effect
Substance: PxIxITc2: PxIxIT peptide corresponding to NFATc2 (SGLSPRIEITPSHEL)
competition of CN binding to GST-NFATc2 ([4]; 100 μM peptide, FIG. 4B): efficiently blocked the interaction of CN with NFATc2 | effect on phosphatase activity of CN on RII peptide [6]: failed in the inhibition of phosphatase activity
